According to paper PMC4375503, “Structural Insights into the Autoregulation and Cooperativity of the Human Transcription Factor Ets-2*”:

B1: single-site EMSA probe (dsDNA)
DNA 1: ATCTCACCGGAAGTGTAGCA
DNA 2: TGCTACACTTCCGGTGAGAT
B2: crystallization 10-mer (dsDNA)
DNA 1: ACCGGAAGTG
DNA 2: CACTTCCGGT

Tests used:
[1] = target: T1, Ets-1 short (equivalent of Ets-2 360-464) (Mus musculus, UniProt P27577 331-440); test: EMSA; apparent Kd; EMSA: 50 mM Tris-HCl pH 7.5, 25 mM NaCl, 50 mM L-arginine-HCl, 0.5 mM EDTA, 0.1% Tween 20, 2 mM DTT, 5% glycerol, room temperature 15 min; probe 0.1 nM (Ets-2); conditions: protein: recombinant; tags: His tag removed by TEV; label: 5'-32P on strand 1; blunt
T1 sequence: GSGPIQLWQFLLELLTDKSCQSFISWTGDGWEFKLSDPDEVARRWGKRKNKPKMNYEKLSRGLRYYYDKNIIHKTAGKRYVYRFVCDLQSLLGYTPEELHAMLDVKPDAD

[2] = target: T2, Ets-2 360-464 (core Ets domain) (Homo sapiens, UniProt P15036 360-464); test: as above; conditions: protein: recombinant; tags: His tag removed by TEV; label: 5'-32P on strand 1; blunt
T2 sequence: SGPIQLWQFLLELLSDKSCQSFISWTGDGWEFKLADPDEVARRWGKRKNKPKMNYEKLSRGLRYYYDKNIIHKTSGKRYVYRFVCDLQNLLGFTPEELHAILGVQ

[3] = target: T3, Ets-2 325-464 (core Ets and autoinhibition domains) (Homo sapiens, UniProt P15036 325-464); test: X-ray crystallography; 2.5 A; 3 Ets-2 and 3 duplexes per asymmetric unit; pH 5.5; EMSA: 50 mM Tris-HCl pH 7.5, 25 mM NaCl, 50 mM L-arginine-HCl, 0.5 mM EDTA, 0.1% Tween 20, 2 mM DTT, 5% glycerol, room temperature 15 min; probe 0.1 nM (Ets-2); conditions: protein: recombinant; tags: His tag removed by TEV; blunt
T3 sequence: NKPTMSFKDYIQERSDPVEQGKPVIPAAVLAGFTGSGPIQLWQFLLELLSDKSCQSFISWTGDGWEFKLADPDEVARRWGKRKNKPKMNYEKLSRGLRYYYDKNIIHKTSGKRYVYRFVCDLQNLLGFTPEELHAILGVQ

Binder | Kd [1] [nM] | Kd [2] [nM] | binding result [3]
B1 | 0.1 ± 0.06 | 0.4 ± 0.04 | 
B2 |  |  | binds
